Values of other authors in paper PMC9371363.

Tests used:
IL-4Rα (Homo sapiens) = IL-4Rα (Homo sapiens) (UniProt P24394)
IL-13Rα2 (Homo sapiens) = IL-13Rα2 (Homo sapiens) (UniProt Q14627)
UniProt Q14627, sequence (Q14627 27-343): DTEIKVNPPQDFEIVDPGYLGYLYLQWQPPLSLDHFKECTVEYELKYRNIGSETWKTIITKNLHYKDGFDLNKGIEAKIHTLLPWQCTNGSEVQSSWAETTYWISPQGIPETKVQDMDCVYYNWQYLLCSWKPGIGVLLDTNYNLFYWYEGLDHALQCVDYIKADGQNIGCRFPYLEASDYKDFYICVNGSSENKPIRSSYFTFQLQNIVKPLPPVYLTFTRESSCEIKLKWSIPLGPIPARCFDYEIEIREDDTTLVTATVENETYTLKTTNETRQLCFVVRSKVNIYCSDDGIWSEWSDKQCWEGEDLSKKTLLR

UniProt P24394, sequence (P24394 26-232): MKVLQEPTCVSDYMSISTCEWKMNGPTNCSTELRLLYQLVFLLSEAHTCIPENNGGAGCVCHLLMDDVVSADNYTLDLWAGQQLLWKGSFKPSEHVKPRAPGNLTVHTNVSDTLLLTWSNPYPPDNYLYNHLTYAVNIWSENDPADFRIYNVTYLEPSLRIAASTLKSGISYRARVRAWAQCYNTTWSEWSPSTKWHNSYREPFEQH

| Substance | Kd (IL-4Rα (Homo sapiens)) [pM] | Kd (IL-13Rα2 (Homo sapiens)) [pM] |
| --- | --- | --- |
| IL-4 (from UniProt P05112) | 100 |  |
| IL-13 (from UniProt P35225) |  | < 0.001 |
